In publication PMC11446282:

Target: fluorescent peptide probe FITC-PEG2-…-Nle-IKKLEW
Assay: fluorescence polarisation

Chain of B55α (His-Strep-TEV fusion protein) (P63151 whole entry, the tested form may be a part): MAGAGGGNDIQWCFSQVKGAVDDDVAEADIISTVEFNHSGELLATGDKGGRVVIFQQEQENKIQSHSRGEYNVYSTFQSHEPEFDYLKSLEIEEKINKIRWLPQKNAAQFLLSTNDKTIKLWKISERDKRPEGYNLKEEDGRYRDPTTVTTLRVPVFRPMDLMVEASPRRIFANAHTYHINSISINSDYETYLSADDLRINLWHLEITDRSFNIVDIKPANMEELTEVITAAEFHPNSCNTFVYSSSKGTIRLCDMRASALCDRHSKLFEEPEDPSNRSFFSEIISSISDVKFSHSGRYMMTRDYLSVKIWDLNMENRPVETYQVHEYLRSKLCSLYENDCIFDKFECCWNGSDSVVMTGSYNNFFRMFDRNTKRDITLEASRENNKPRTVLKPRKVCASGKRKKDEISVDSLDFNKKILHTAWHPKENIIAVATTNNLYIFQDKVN

- Kd: 6 nM
Substance: B55α (His-Strep-TEV fusion protein) (from UniProt P63151 1-447) (natural protein)
